B1: Protein EAP1 (Saccharomyces cerevisiae), P36041 (parent)
chain: MELNDPSIISSSQFSGELSDSDTAAATHKSQQAISNLFQKLAKKGREEKPIGSVESSTDSSNISVATSGNNKESNKKKNKKTAMLNFSSLTDPITNYKPMDLQYKTYAYSMNELYHLKPSLASASYEEDPLISELVRSLPKRKFWRLRMGPPDQKHANNHHFNGNNGGGSWKAGYKNGKNDERRMSRTKNMQGGKRRSQQDDEEKKIDQEMLEMDKNLQLGGDVGHSIADFEDWKAKMKELELKKLSKSKGISNSTAIAPRESASHETPTDLRPVIPRGPSSITDFLNLKRQDKKEESSQQTPGIPVGQPSLSKTSIEQVNELETNSDLGKSSSSRFSSFFNKSATSLPSLDNNNQVPSSNVSVVNNDGNSTPHQSGSRLMSFFKESRSSTPNAESQLLSASDKDNGKMQTLPQFQQQPQQMQPMAFTQHPPNNNAFFNGLLNKGKSETSTPPPPPPGLIAHQGPQFPVMGVPPNFPQRMMPPPPGLVQFQKDSKDVNKKEDRQLRQNKNPNGTRNSKGKQEETATPDLPQQQYMPPPPPPGFFPMHPNFPNGPMPPLPQGFPIPPNGMLPVTGQQPQPPYPNMMLQGNFPPNFQQGFGSNSPMPIPSIINANGKNVTNQLPPGLNSKKNIK
partner: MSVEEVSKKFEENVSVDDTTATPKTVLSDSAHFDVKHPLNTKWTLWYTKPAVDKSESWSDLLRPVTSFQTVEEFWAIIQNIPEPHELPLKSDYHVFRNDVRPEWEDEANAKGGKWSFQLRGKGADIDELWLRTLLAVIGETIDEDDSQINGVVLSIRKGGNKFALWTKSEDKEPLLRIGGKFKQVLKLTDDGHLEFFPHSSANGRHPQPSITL

Variants of: B1
Conditions: with if4e_yeast CDC33, P07260

**Q.** For Y109A;L114A, which “effect of a mutation on the interaction” value is on record?
**A.** disrupting interaction

**Q.** How did the “effect of a mutation on the interaction” value turn out when Y109A was run?
**A.** disrupting interaction
